Consider eleven molecules from patent US10941182 (Amgen, dated 2021).

Starred links: 1 amine or outer side, 2 acyl side, 3 side chain; linkers in the order of their positions; H or OH if unused. Non-standard residues stand in square brackets, D forms with d. *: point of attachment. AC4Abu = α-carboxy-4-aminobutyric acid, O=C(C(CCN[*:1])C(=O)[*:3])[*:2]; Oic = O=C(O)[C@@H]1C[C@@H]2CCCC[C@@H]2N1; Phe(4-Cl) = N[C@@H](Cc1ccc(Cl)cc1)C(=O)O; d(β3hF) = N[C@@H](CC(=O)O)Cc1ccccc1; NMeR = CN[C@@H](CCCNC(=N)N)C(=O)O; Palmitoyl = CCCCCCCCCCCCCCCC(=O)*; β3hF = N[C@H](CC(=O)O)Cc1ccccc1; Cha = N[C@@H](CC1CCCCC1)C(=O)O; αMeP = C[C@@]1(C(=O)O)CCCN1; β3hP = O=C(O)C[C@@H]1CCCN1; Ac6c = NC1(C(=O)O)CCCCC1; Nle = CCCC[C@H](N)C(=O)O; Ac5c = NC1(C(=O)O)CCCC1; AEEA = NCCOCCOCC(=O)O; Aib = CC(C)(N)C(=O)O; Nip = nipecotic acid; βAla = NCCC(=O)O

In one test the target is T1, rat APJ receptor (rat, UniProt Q9JHG3 1-377).
T1 sequence (looked up): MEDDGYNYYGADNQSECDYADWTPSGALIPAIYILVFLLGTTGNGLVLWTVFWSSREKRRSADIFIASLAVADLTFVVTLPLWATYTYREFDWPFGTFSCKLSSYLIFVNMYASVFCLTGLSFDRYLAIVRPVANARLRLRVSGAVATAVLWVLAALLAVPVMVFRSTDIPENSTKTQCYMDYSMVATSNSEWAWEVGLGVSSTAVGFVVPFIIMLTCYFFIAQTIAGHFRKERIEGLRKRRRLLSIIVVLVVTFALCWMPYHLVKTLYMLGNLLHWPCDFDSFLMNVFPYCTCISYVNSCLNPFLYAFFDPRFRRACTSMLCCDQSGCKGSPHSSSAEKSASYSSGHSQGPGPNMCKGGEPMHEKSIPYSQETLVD
The experiment in a line: cell-based or functional assay.

The next test has as its target T2, human APJ receptor (human, UniProt P35414 1-380).
T2 sequence (looked up): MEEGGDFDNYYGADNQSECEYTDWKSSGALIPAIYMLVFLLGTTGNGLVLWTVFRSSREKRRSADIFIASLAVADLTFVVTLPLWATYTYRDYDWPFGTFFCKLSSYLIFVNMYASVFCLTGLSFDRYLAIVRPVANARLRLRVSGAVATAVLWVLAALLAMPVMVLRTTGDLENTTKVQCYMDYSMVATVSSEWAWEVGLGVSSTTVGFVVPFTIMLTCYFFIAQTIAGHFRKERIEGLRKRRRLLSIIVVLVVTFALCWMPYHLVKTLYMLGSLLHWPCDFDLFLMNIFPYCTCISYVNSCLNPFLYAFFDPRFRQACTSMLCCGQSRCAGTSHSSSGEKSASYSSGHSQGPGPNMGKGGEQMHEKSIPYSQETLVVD
Put plainly: cell-based or functional assay.

B1: SEQ ID NO: 578 (peptide)
peptide: Palmitoyl-[AC4Abu][AEEA][AEEA][dQ]RP[NMeR][Cha]SHKG[Oic][Nle][β3hF]-OH
SMILES: CCCCCCCCCCCCCCCC(=O)NCCC(C(=O)O)C(=O)NCCOCCOCC(=O)NCCOCCOCC(=O)N[C@H](CCC(N)=O)C(=O)N[C@@H](CCCNC(=N)N)C(=O)N1CCC[C@H]1C(=O)N(C)[C@@H](CCCNC(=N)N)C(=O)N[C@@H](CC1CCCCC1)C(=O)N[C@@H](CO)C(=O)N[C@@H](Cc1c[nH]cn1)C(=O)N[C@@H](CCCCN)C(=O)NCC(=O)N1[C@H](C(=O)N[C@@H](CCCC)C(=O)N[C@H](CC(=O)O)Cc2ccccc2)C[C@@H]2CCCC[C@@H]21
For the molecule B1, in the test with rat APJ receptor, the “EC50 Rat APJ Receptor” value turned out to be 4.9 nM. Further, the “EC50 Human APJ Receptor” value with human APJ receptor worked out at 1.8 nM.

B2: SEQ ID NO: 585 (peptide)
peptide: Palmitoyl-[AC4Abu][AEEA][AEEA][dQ]RP[NMeR][Cha]SHKG[Oic][Nle][Ac5c][Phe(4-Cl)]-OH
SMILES: CCCCCCCCCCCCCCCC(=O)NCCC(C(=O)O)C(=O)NCCOCCOCC(=O)NCCOCCOCC(=O)N[C@H](CCC(N)=O)C(=O)N[C@@H](CCCNC(=N)N)C(=O)N1CCC[C@H]1C(=O)N(C)[C@@H](CCCNC(=N)N)C(=O)N[C@@H](CC1CCCCC1)C(=O)N[C@@H](CO)C(=O)N[C@@H](Cc1c[nH]cn1)C(=O)N[C@@H](CCCCN)C(=O)NCC(=O)N1[C@H](C(=O)N[C@@H](CCCC)C(=O)NC2(C(=O)N[C@@H](Cc3ccc(Cl)cc3)C(=O)O)CCCC2)C[C@@H]2CCCC[C@@H]21
In the case of B2, the “EC50 Rat APJ Receptor” value with rat APJ receptor worked out at 22.3 nM. Also, the “EC50 Human APJ Receptor” value with human APJ receptor was 6.73 nM.

B3: SEQ ID NO: 575 (peptide)
peptide: Palmitoyl-[AC4Abu][AEEA][AEEA][dQ]RP[NMeR][Cha]SHKG[Oic][Nle]P[β3hF]-OH
SMILES: CCCCCCCCCCCCCCCC(=O)NCCC(C(=O)O)C(=O)NCCOCCOCC(=O)NCCOCCOCC(=O)N[C@H](CCC(N)=O)C(=O)N[C@@H](CCCNC(=N)N)C(=O)N1CCC[C@H]1C(=O)N(C)[C@@H](CCCNC(=N)N)C(=O)N[C@@H](CC1CCCCC1)C(=O)N[C@@H](CO)C(=O)N[C@@H](Cc1c[nH]cn1)C(=O)N[C@@H](CCCCN)C(=O)NCC(=O)N1[C@H](C(=O)N[C@@H](CCCC)C(=O)N2CCC[C@H]2C(=O)N[C@H](CC(=O)O)Cc2ccccc2)C[C@@H]2CCCC[C@@H]21
Consider B3, for which the “EC50 Rat APJ Receptor” value with rat APJ receptor was determined as 14.1 nM. The “EC50 Human APJ Receptor” value with human APJ receptor was determined as 3.58 nM.

B4: SEQ ID NO: 572 (peptide)
peptide: Palmitoyl-[AC4Abu][AEEA][AEEA][dQ]RP[NMeR][Cha]SHKG[Oic][Nle][βAla][d(β3hF)]-OH
SMILES: CCCCCCCCCCCCCCCC(=O)NCCC(C(=O)O)C(=O)NCCOCCOCC(=O)NCCOCCOCC(=O)N[C@H](CCC(N)=O)C(=O)N[C@@H](CCCNC(=N)N)C(=O)N1CCC[C@H]1C(=O)N(C)[C@@H](CCCNC(=N)N)C(=O)N[C@@H](CC1CCCCC1)C(=O)N[C@@H](CO)C(=O)N[C@@H](Cc1c[nH]cn1)C(=O)N[C@@H](CCCCN)C(=O)NCC(=O)N1[C@H](C(=O)N[C@@H](CCCC)C(=O)NCCC(=O)N[C@@H](CC(=O)O)Cc2ccccc2)C[C@@H]2CCCC[C@@H]21
Regarding B4, the “EC50 Rat APJ Receptor” value in the test with rat APJ receptor was found to be 7.68 nM. In addition, the “EC50 Human APJ Receptor” value with human APJ receptor stood at 1.1 nM.

B5: SEQ ID NO: 571 (peptide)
peptide: Palmitoyl-[AC4Abu][AEEA][AEEA][dQ]RP[NMeR][Cha]SHKG[Oic][Nle][β3hP][d(β3hF)]-OH
SMILES: CCCCCCCCCCCCCCCC(=O)NCCC(C(=O)O)C(=O)NCCOCCOCC(=O)NCCOCCOCC(=O)N[C@H](CCC(N)=O)C(=O)N[C@@H](CCCNC(=N)N)C(=O)N1CCC[C@H]1C(=O)N(C)[C@@H](CCCNC(=N)N)C(=O)N[C@@H](CC1CCCCC1)C(=O)N[C@@H](CO)C(=O)N[C@@H](Cc1c[nH]cn1)C(=O)N[C@@H](CCCCN)C(=O)NCC(=O)N1[C@H](C(=O)N[C@@H](CCCC)C(=O)N2CCC[C@H]2CC(=O)N[C@@H](CC(=O)O)Cc2ccccc2)C[C@@H]2CCCC[C@@H]21
With B5, the “EC50 Rat APJ Receptor” value with rat APJ receptor stood at 4.81 nM. The “EC50 Human APJ Receptor” value in the test with human APJ receptor is 1.49 nM.

B6: SEQ ID NO: 577 (peptide)
peptide: Palmitoyl-[AC4Abu][AEEA][AEEA][dQ]RP[NMeR][Cha]SHKG[Oic][Nle][Aib][β3hF]-OH
SMILES: CCCCCCCCCCCCCCCC(=O)NCCC(C(=O)O)C(=O)NCCOCCOCC(=O)NCCOCCOCC(=O)N[C@H](CCC(N)=O)C(=O)N[C@@H](CCCNC(=N)N)C(=O)N1CCC[C@H]1C(=O)N(C)[C@@H](CCCNC(=N)N)C(=O)N[C@@H](CC1CCCCC1)C(=O)N[C@@H](CO)C(=O)N[C@@H](Cc1c[nH]cn1)C(=O)N[C@@H](CCCCN)C(=O)NCC(=O)N1[C@H](C(=O)N[C@@H](CCCC)C(=O)NC(C)(C)C(=O)N[C@H](CC(=O)O)Cc2ccccc2)C[C@@H]2CCCC[C@@H]21
Regarding B6, the “EC50 Rat APJ Receptor” value with rat APJ receptor came out at 4.42 nM. For the same molecule, in the test with human APJ receptor, the “EC50 Human APJ Receptor” value was 1.78 nM.

Consider Palmitoyl-[AC4Abu][AEEA][AEEA][dQ]RP[NMeR][Cha]SHKG[Oic][Nle][Nip][Phe(4-Cl)]-OH [SEQ ID NO: 586], for which the “EC50 Rat APJ Receptor” value with rat APJ receptor came out at 23 nM. Besides, the “EC50 Human APJ Receptor” value with human APJ receptor is 7.96 nM.

B7: SEQ ID NO: 584 (peptide)
peptide: Palmitoyl-[AC4Abu][AEEA][AEEA][dQ]RP[NMeR][Cha]SHKG[Oic][Nle][Ac6c][Phe(4-Cl)]-OH
SMILES: CCCCCCCCCCCCCCCC(=O)NCCC(C(=O)O)C(=O)NCCOCCOCC(=O)NCCOCCOCC(=O)N[C@H](CCC(N)=O)C(=O)N[C@@H](CCCNC(=N)N)C(=O)N1CCC[C@H]1C(=O)N(C)[C@@H](CCCNC(=N)N)C(=O)N[C@@H](CC1CCCCC1)C(=O)N[C@@H](CO)C(=O)N[C@@H](Cc1c[nH]cn1)C(=O)N[C@@H](CCCCN)C(=O)NCC(=O)N1[C@H](C(=O)N[C@@H](CCCC)C(=O)NC2(C(=O)N[C@@H](Cc3ccc(Cl)cc3)C(=O)O)CCCCC2)C[C@@H]2CCCC[C@@H]21
For B7, the “EC50 Rat APJ Receptor” value with rat APJ receptor was found to be 52.2 nM. The “EC50 Human APJ Receptor” value with human APJ receptor stood at 22.9 nM.

B8: SEQ ID NO: 580 (peptide)
peptide: Palmitoyl-[AC4Abu][AEEA][AEEA][dQ]RP[NMeR][Cha]SHKG[Oic][Aib][Phe(4-Cl)]-OH
SMILES: CCCCCCCCCCCCCCCC(=O)NCCC(C(=O)O)C(=O)NCCOCCOCC(=O)NCCOCCOCC(=O)N[C@H](CCC(N)=O)C(=O)N[C@@H](CCCNC(=N)N)C(=O)N1CCC[C@H]1C(=O)N(C)[C@@H](CCCNC(=N)N)C(=O)N[C@@H](CC1CCCCC1)C(=O)N[C@@H](CO)C(=O)N[C@@H](Cc1c[nH]cn1)C(=O)N[C@@H](CCCCN)C(=O)NCC(=O)N1[C@H](C(=O)NC(C)(C)C(=O)N[C@@H](Cc2ccc(Cl)cc2)C(=O)O)C[C@@H]2CCCC[C@@H]21
As to B8, the “EC50 Rat APJ Receptor” value with rat APJ receptor was 0.736 nM. In addition, the “EC50 Human APJ Receptor” value with human APJ receptor turned out to be 0.462 nM.

B9: SEQ ID NO: 573 (peptide)
peptide: Palmitoyl-[AC4Abu][AEEA][AEEA][dQ]RP[NMeR][Cha]SHKG[Oic][Nle][d(β3hF)]-OH
SMILES: CCCCCCCCCCCCCCCC(=O)NCCC(C(=O)O)C(=O)NCCOCCOCC(=O)NCCOCCOCC(=O)N[C@H](CCC(N)=O)C(=O)N[C@@H](CCCNC(=N)N)C(=O)N1CCC[C@H]1C(=O)N(C)[C@@H](CCCNC(=N)N)C(=O)N[C@@H](CC1CCCCC1)C(=O)N[C@@H](CO)C(=O)N[C@@H](Cc1c[nH]cn1)C(=O)N[C@@H](CCCCN)C(=O)NCC(=O)N1[C@H](C(=O)N[C@@H](CCCC)C(=O)N[C@@H](CC(=O)O)Cc2ccccc2)C[C@@H]2CCCC[C@@H]21
For B9, the “EC50 Rat APJ Receptor” value in the test with rat APJ receptor turned out to be 4.24 nM. Further, the “EC50 Human APJ Receptor” value with human APJ receptor was 2.17 nM.

B10: SEQ ID NO: 570 (peptide)
peptide: Palmitoyl-[AC4Abu][AEEA][AEEA][dQ]RP[NMeR][Cha]SHKG[Oic][Nle][αMeP][d(β3hF)]-OH
SMILES: CCCCCCCCCCCCCCCC(=O)NCCC(C(=O)O)C(=O)NCCOCCOCC(=O)NCCOCCOCC(=O)N[C@H](CCC(N)=O)C(=O)N[C@@H](CCCNC(=N)N)C(=O)N1CCC[C@H]1C(=O)N(C)[C@@H](CCCNC(=N)N)C(=O)N[C@@H](CC1CCCCC1)C(=O)N[C@@H](CO)C(=O)N[C@@H](Cc1c[nH]cn1)C(=O)N[C@@H](CCCCN)C(=O)NCC(=O)N1[C@H](C(=O)N[C@@H](CCCC)C(=O)N2CCC[C@@]2(C)C(=O)N[C@@H](CC(=O)O)Cc2ccccc2)C[C@@H]2CCCC[C@@H]21
On to B10, for which the “EC50 Rat APJ Receptor” value with rat APJ receptor worked out at 19.8 nM. Further, the “EC50 Human APJ Receptor” value with human APJ receptor is 8.01 nM.
